In IntAct's records for PubMed 19229295:

B1: Bone morphogenetic protein receptor type-1B (Homo sapiens), O00238 (parent)
chain: MLLRSAGKLNVGTKKEDGESTAPTPRPKVLRCKCHHHCPEDSVNNICSTDGYCFTMIEEDDSGLPVVTSGCLGLEGSDFQCRDTPIPHQRRSIECCTERNECNKDLHPTLPPLKNRDFVDGPIHHRALLISVTVCSLLLVLIILFCYFRYKRQETRPRYSIGLEQDETYIPPGESLRDLIEQSQSSGSGSGLPLLVQRTIAKQIQMVKQIGKGRYGEVWMGKWRGEKVAVKVFFTTEEASWFRETEIYQTVLMRHENILGFIAADIKGTGSWTQLYLITDYHENGSLYDYLKSTTLDAKSMLKLAYSSVSGLCHLHTEIFSTQGKPAIAHRDLKSKNILVKKNGTCCIADLGLAVKFISDTNEVDIPPNTRVGTKRYMPPEVLDESLNRNHFQSYIMADMYSFGLILWEVARRCVSGGIVEEYQLPYHDLVPSDPSYEDMREIVCIKKLRPSFPNRWSSDECLRQMGKLMTECWAHNPASRLTALRVKKTLAKMSESQDIKL
partner: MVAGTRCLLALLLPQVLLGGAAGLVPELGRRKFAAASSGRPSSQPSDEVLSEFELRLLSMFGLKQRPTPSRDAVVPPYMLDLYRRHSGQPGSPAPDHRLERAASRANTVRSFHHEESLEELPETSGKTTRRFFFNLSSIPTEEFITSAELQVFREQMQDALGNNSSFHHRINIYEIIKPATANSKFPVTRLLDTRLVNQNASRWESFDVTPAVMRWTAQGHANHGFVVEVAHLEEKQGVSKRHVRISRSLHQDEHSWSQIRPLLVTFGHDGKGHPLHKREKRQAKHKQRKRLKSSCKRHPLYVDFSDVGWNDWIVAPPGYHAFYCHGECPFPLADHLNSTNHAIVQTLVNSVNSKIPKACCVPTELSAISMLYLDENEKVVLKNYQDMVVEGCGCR

Variants of: B1
Settings: with bmp2_human BMP2, P12643

Variant	effect of a mutation on the interaction
H36G	decreasing interaction
H35S	decreasing interaction

Variants of: B1
Settings: with bmp2_human BMP2, P12643
Remark: another data set of the same source

Variant	effect of a mutation on the interaction
Q80A	decreasing interaction
